Measured values as given in the MegaScale stability set (Tsuboyama et al. 2023).

B1: 1ZHC (parent)
chain: HEFRDEISVLKANNPHFDKIFEKHNQLDDDIKTAEQQNASDAEVSHMKKQKLKLKDEIHSMIIEYREK
B2: HEEH_KT_rd6_3546 (parent)
chain: SEEDKEREHWERLNRDFELRVLDTTFIAHHAEEVIKLLRWLEK

Variants of: B1
Assay: folding stability dG (cDNA display proteolysis); higher = more stable
Conditions: PBS, room temperature

Folding stability dG [kJ/mol] of substitutions, site by site:
S60: H 3.31, L 4.15, D 2.24, R 6.9, M 5.4, G 1.51, A 6.19, E 1.95, W 2.91, F 3, N 3.9, Y 2.35, K 6.33

Variants of: B2
Assay: as above
Conditions: PBS, room temperature

Folding stability dG [kJ/mol], by site and new letter:
E3: I 6.54, P 5.45, N 6.31, V 5.41, D 6.21, H 5.68, T 4.97, L 6.74, Y 5.8, S 6.05, W 6.88, M 5.55, G 5.36, Q 5.92, K 5.86, A 5.1, F 6.82, R 6.2
S1: I 5.11, E 4.98, H 5.64, Y 5.32, W 4.86, M 3.83, Q 6.28, G 6.32, F 4.73, V 5.47, P 5.97, T 5.85, L 5.64, C 8.87, N 5.44, D 5.71, R 5.71, K 4.95, A 5.37
K5: E 5.82, W 6.99, P 5.36, S 4.53, A 5.83, G 5.3, N 5.41, I 4.9, F 6.04, H 5.84, V 6.1, M 5.06, T 5.08, D 5.91, R 5.15, Q 4.64, Y 5.67, L 4.79
E2: V 6.08, Q 6.76, T 6.17, L 6.42, H 5.95, N 5.77, R 6.75, K 6.07, W 6.57, G 6.59, F 5.71, A 6.19, P 5.63, D 6.01, Y 6.08, S 5.49, I 6.7, M 5.99
D4: G 5.36, P 5.78, E 6.54, N 6.03, V 5.45, L 6.41, R 5.8, S 5.41, K 5.88, I 5.87, Y 5.72, H 5.9, C 9.05, Q 5.95, T 5.96, M 5.92, A 5.78, W 6.05, F 6.13
E6: R 5.78, L 6.47, K 4.92, H 5.97, D 4, T 6.55, V 6.52, I 6.8, Y 6.5, N 5.78, Q 6.18, M 6.44, W 7.55, F 7.26, P 4.96, C 7.1, A 6.24, S 6.15, G 5.65
H9: F 7.97, C 10.6, G 5.92, A 5.92, I 7.77, E 5.02, D 5.01
E8: R 5.63, G 6.28, T 6.6, V 5.27, I 6, L 6.13, H 4.82, Y 5.38, S 7.78, D 4.9, Q 5.6, K 5.54, M 7.22, N 6.18, F 8.18, P 4.57, A 5.85, W 8.53
R7: D 5.23, H 4.94, S 5.45, V 5.36, M 6.1, T 5.27, Q 5.63, W 5.82, N 5.26, I 5.68, K 4.98, E 5.43, P 4.97, F 4.74, A 6.42, L 5.26, G 6.15, Y 5.08
